The text below walks through data of US5223421A, “Identification of methionine Nα-acetyltransferase” (The General Hospital Corporation, priority 1990, dated 1993).

“And” between values parts separate entries of the source, which are not always exact repeats. Identical values can stand only once. “Also recorded” adds a separate entry of the source. Like-named read-outs stand apart in the source and are kept apart here.

One experiment addresses T1, yeast N^α AT (Saccharomyces cerevisiae, UniProt P07347+P12945).
T1 sequence (P12945 2-854 limits assumed): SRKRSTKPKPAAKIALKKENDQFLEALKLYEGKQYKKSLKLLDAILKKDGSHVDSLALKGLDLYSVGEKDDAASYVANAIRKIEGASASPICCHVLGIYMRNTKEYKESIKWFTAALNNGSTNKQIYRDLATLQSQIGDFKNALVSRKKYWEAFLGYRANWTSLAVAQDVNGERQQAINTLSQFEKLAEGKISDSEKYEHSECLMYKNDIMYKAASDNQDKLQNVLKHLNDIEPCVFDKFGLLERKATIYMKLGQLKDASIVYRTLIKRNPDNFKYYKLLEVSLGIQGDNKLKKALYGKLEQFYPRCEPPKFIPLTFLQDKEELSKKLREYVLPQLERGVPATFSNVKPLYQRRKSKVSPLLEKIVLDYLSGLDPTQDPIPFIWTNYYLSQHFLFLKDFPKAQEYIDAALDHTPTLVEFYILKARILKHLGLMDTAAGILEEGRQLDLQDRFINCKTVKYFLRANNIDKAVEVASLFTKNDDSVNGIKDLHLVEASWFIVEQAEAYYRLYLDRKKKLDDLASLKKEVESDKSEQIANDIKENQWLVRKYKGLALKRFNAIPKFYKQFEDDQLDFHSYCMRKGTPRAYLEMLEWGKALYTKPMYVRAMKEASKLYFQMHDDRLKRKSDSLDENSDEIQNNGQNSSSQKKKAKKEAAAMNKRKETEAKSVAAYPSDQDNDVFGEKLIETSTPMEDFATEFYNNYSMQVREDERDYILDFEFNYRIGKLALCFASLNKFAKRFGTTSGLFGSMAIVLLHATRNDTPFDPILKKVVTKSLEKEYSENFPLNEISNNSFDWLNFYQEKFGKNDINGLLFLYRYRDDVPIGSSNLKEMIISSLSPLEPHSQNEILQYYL
T1 sequence (P07347 1-238): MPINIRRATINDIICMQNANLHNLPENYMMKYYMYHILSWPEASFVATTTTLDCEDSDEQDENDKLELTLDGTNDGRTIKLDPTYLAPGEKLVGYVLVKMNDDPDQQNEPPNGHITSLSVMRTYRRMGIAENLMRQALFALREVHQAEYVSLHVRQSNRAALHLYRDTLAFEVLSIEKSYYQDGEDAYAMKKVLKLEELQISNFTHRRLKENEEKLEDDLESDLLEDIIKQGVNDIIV
In words: Effect of ions and reagents on yeast N^α AT (comparison in the discussion). The class given is biochemical.

Experiment [1] concerns methionine N^α -acetyltransferase from S. cerevisiae. In words: Effect of protein modification reagents on enzyme activity. It is filed as biochemical, Saccharomyces cerevisiae. Particulars: for effect of reagent on M-N^α AT activity: concentration not given. As for the experimental part:
(§1) N^α -acetyltransferase activity was determined as previously described [Lee et al., J. Biol. Chem. 263:14948-14955 (1988)]. Aliquots of the lysate or chromatographic fractions were added to 1.5 ml Eppendorf tubes containing a reaction mixture of 50 mM HEPES, pH 7.4, 150 mM KCl, 1 mM DTT, 25 μM [^3 H] acetyl coenzyme A (0.5 μCi) and 50 μM synthetic peptide with an adjusted final volume of 100 μl. The assay mixture was incubated at 30° C. for 30 min. The reaction was stopped by adding 17 μl of 0.5M acetic acid and chilled in an ice bath. The reaction samples were filtered through SP membrane discs (Cuno) (previously pre-swollen in 0.5M acetic acid), and then washed three times with 1 ml of 0.5M acetic acid on a Millipore 1225 sampling manifold. The partially dried membranes were placed in scintillation cocktail and counted with a Beckman LS 3801 scintillation counter. One unit of activity was defined as the amount of enzyme able to transfer 1 pmol of [^3 H] acetyl group from [^3 H] acetyl coenzyme A to synthetic peptide per min under standard enzyme assay conditions defined above.
In order to determine the possible catalytic role for different types of amino acid residues in the enzyme, various chemical modifications were carried out (Table 10). Yeast methionine acetyltransferase was incubated with each reagent at 30° C. for 15 min, dialyzed against 50 mM HEPES, pH 7.4, 150 mM, 1 mM DTT at 4° C. for 3 to 4 hr. The enzyme activity was determined under standard assay conditions using PAI (N=3), assayed as described above.

Experiment [2] has as its target T2, yeast methionine acetyltransferase (M-N^α AT) (Saccharomyces cerevisiae, UniProt Q06504).
T2 construct: a crude yeast homogenate from the aaa1 mutant strain; endogenous in cells; host or cells: Saccharomyces cerevisiae strain T3A-a (aaa1), crude lysate
T2 sequence (Q06504 1-195): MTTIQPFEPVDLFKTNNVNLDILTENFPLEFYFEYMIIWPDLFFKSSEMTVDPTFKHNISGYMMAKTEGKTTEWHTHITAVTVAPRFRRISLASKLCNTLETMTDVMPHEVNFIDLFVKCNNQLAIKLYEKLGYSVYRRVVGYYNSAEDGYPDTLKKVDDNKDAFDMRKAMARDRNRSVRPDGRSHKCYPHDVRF
T2 sequence (Q12387 2-796 partner limits assumed): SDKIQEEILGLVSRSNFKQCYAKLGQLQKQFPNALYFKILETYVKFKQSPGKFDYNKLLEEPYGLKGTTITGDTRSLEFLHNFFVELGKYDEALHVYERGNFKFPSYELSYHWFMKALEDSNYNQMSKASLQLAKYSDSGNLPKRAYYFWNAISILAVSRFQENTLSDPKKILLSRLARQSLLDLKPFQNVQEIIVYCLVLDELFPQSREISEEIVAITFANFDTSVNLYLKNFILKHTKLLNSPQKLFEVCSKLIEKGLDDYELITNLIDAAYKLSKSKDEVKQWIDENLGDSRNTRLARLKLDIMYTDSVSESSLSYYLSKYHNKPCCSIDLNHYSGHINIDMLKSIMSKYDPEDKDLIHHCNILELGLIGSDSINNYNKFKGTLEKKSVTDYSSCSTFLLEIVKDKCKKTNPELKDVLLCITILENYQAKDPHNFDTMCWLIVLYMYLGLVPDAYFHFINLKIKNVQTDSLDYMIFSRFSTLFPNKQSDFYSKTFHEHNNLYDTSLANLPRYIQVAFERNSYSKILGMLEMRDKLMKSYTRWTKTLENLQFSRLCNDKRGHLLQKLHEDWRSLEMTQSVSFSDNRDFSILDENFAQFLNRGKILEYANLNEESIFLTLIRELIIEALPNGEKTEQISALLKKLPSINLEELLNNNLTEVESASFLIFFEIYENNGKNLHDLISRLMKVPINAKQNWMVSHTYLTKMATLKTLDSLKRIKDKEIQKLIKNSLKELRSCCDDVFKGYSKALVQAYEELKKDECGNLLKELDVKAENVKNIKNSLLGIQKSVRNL
In words: Relative activity of yeast methionine acetyltransferase for N^α -acetylation of synthetic peptides (PAI analogues). The class given is biochemical. Details: tested at 50 µM. Particulars: Table 5; mean ± SD (N=3-5); normalized to yeast proteinase A inhibitor 3. On the procedure: as §1
Proteinase A inhibitor 3 (PAI) (Tsunasawa et al., Methods Enzymol. 106:165-170 (1984); Wold, F., Trends Biochem Sci. 9:256-267 (1984); Driessen et al., CRC Crit. Rev. Biochem 18:281-325 (1985); Mullen et al., EMBO J. 8:2067-2075 (1989); Lee et al., J. Bacteriol. 171:5795-5802 (1989); Hershko et al., Proc. Natl. Acad. Sci. USA 81:7021-7025 (1984); Bachmair et al., Science 234:179-186 (1986); Arfin et al., Biochemistry 27:7979-7984 (1988); Persson et al., Eur. J. Biochem. 152:523-527 (1985); Huang al., Biochemistry 26:8242-8246 (1987); Lee et al., J. Biol. Chem. 263:14948-14955 (1988); Kamitani et al., J. Biol. Chem. 264:13188-13193 (1989)) is the only known yeast protein which is acetylated at its NH2 -terminal methionine residue (Biedermann et al., Carlsberg Res. Commun. 45:225-235 (1980)). […] The numbers in parentheses refer to the residue numbers, and the letters in parentheses refer to the amino acid sequence Abbreviations are as in FIG. 1. Data are reported as mean activity ±SD (N=3-5) and are normalized to the activity of the homogenate towards yeast proteinase A inhibitor 3. The sequence of this protein is:
Thus, by using PAI, its analogues and other peptides, the structural features of M-N^α AT substrates were studied. […] Only three of nineteen analogues were acetylated, although the efficiency of their acetylation varied from 9-55% (Asp>Glu>Gln). Although it was shown previously that iso-cytochrome c variant proteins (Met-Ile-Arg - - -, Met-Ile-Lys - - -, Met-Met-Asn - - -) can be N^α -acetylated in vivo (Tsunasawa et al., J. Biol. Chem. 260:5382-5391 (1985)), synthetic peptides mimicking the NH2 -terminal 24 amino acid residues of these iso-cytochrome c variants were not acetylated by the yeast M-N^αAT.

[3] abbreviates: reagent 10.0 mM, 30° C. 15 min, then dialyzed, substrate PAI (N=3).

As for `OCCS` [2-mercaptoethanol], at yeast N^α AT, the “effect of reagent on N^α AT activity” value is “inability”. For the same compound, the “effect of reagent on M-N^α AT activity” value in experiment [1] is given as “did not affect the enzyme activity”; in experiment [1] (listed as β-mercaptoethanol) it was “inability”. The “Enzyme Activity (%)” value in experiment [1] (setting [3]) is recorded as 96%.

Consider `OC(CS)C(O)CS` (stereo not shown) [DTT], for which the “effect of reagent on N^α AT activity” value on yeast N^α AT was “inability”. In addition, the “effect of reagent on M-N^α AT activity” value in experiment [1] is recorded as “did not affect the enzyme activity; also recorded: inability”. In experiment [1] (setting [3]), the “Enzyme Activity (%)” value stood at 95%. As for `O=C(O)CI` [IAA, iodoacetic acid], the “effect of reagent on N^α AT activity” value at yeast N^α AT is “inability”. For the same compound, the “Enzyme Activity (%)” value in experiment [1] was 102% and 75%. In the case of “[Asp2 ]PROTEINASE A INHIBITOR 3 (1-24) (Yeast): synthetic PAI analogue with substitution at penultimate position (Asp) (MDTDQQKVSEIFQSSKEKLQGDAK; UniProt P01094 1-24, looked up, variant N2D)”, in experiment [2], the “Activity (%)” value was determined as 55 ± 5%. With “[Gln2 ]PROTEINASE A INHIBITOR 3 (1-24) (Yeast): synthetic PAI analogue with substitution at penultimate position (Gln) (MQTDQQKVSEIFQSSKEKLQGDAK; UniProt P01094 1-24, looked up, variant N2Q)”, the “Activity (%)” value in experiment [2] worked out at 9 ± 3%. Turning to “[Gly2 ]PROTEINASE A INHIBITOR 3 (1-24) (Yeast): synthetic PAI analogue with substitution at penultimate position (Gly) (MGTDQQKVSEIFQSSKEKLQGDAK; UniProt P01094 1-24, looked up, variant N2G)”, in experiment [2], the “Activity (%)” value is recorded as 0%. For the compound “[His2 ]PROTEINASE A INHIBITOR 3 (1-24) (Yeast): synthetic PAI analogue with substitution at penultimate position (His) (MHTDQQKVSEIFQSSKEKLQGDAK; UniProt P01094 1-24, looked up, variant N2H)”, the “Activity (%)” value in experiment [2] was determined as 0%. “[Ile2 ]PROTEINASE A INHIBITOR 3 (1-24) (Yeast): synthetic PAI analogue with substitution at penultimate position (Ile) (MITDQQKVSEIFQSSKEKLQGDAK; UniProt P01094 1-24, looked up, variant N2I)”: the “Activity (%)” value in experiment [2] worked out at 0%. For the compound “[Met2 ]PROTEINASE A INHIBITOR 3 (1-24) (Yeast): synthetic PAI analogue with substitution at penultimate position (Met) (MMTDQQKVSEIFQSSKEKLQGDAK; UniProt P01094 1-24, looked up, variant N2M)”, the “Activity (%)” value in experiment [2] is recorded as 0%. The same measure, in the same setting: then “[Phe2 ]PROTEINASE A INHIBITOR 3 (1-24) (Yeast): synthetic PAI analogue with substitution at penultimate position (Phe) (MFTDQQKVSEIFQSSKEKLQGDAK; UniProt P01094 1-24, looked up, variant N2F)”, with 0%; and “[Pro2 ]PROTEINASE A INHIBITOR 3 (1-24) (Yeast): synthetic PAI analogue with substitution at penultimate position (Pro) (MPTDQQKVSEIFQSSKEKLQGDAK; UniProt P01094 1-24, looked up, variant N2P)”, with 0%; and “[Trp2 ]PROTEINASE A INHIBITOR 3 (1-24) (Yeast): synthetic PAI analogue with substitution at penultimate position (Trp) (MWTDQQKVSEIFQSSKEKLQGDAK; UniProt P01094 1-24, looked up, variant N2W)”, with 0%.

For “[Val2 ]PROTEINASE A INHIBITOR 3 (1-24) (Yeast): synthetic PAI analogue with substitution at penultimate position (Val) (MVTDQQKVSEIFQSSKEKLQGDAK; UniProt P01094 1-24, looked up, variant N2V)”, the “Activity (%)” value in experiment [2] was 0%.
